Molecular target: the molecule itself
Experiment: cryo-EM structure; single-particle cryo-EM of purified TolQR complex at 7.5 mg/mL in SEC buffer (50 mM Tris/HCl pH 7.5, 300 mM NaCl, 2 mM EDTA, 0.01% LMNG); rigid-body refinement of a published model

B1: TolQ (natural protein, E. coli, UniProt P0ABU9 1-230, looked up)
chain: MTDMNILDLFLKASLLVKLIMLILIGFSIASWAIIIQRTRILNAAAREAEAFEDKFWSGIELSRLYQESQGKRDNLTGSEQIFYSGFKEFVRLHRANSHAPEAVVEGASRAMRISMNRELENLETHIPFLGTVGSISPYIGLFGTVWGIMHAFIALGAVKQATLQMVAPGIAEALIATAIGLFAAIPAVMAYNRLNQRVNKLELNYDNFMEEFTAILHRQAFTVSESNKG
notes: TolQ, E. coli, inner-membrane motor protein of the Tol system; expressed from pCEP13 (pT12-tolQ-tolR); Pentamer in the TolQR complex; also called TolQ pentamer; motor subunit of TolQR
stoichiometry N: 5

Reference: article PMC10666116, “Tunable force transduction through the Escherichia coli cell envelope” (Proceedings of the National Academy of Sciences of the …, 2023)
